T1: recombinant human CD30L (human, UniProt P32971 63-234)
T1 construct: Recombinant or purified protein of the ELISA, BLI, Carterra and KinExA assays; construct not described; also called rhCD30L; huCD30L
T1 sequence (looked up): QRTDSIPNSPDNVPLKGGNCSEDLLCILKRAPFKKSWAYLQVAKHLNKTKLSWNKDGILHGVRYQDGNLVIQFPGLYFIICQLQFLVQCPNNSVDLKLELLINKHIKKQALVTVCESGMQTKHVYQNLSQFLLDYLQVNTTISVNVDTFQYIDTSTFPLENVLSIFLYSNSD

T2: human CD30L expressed on B16 cells (human, UniProt P32971 1-234)
T2 construct: whole, on cells; B16 cell line transfected to express human CD30L; also called B16-huCD30L; hCD30L B16
T2 sequence (looked up): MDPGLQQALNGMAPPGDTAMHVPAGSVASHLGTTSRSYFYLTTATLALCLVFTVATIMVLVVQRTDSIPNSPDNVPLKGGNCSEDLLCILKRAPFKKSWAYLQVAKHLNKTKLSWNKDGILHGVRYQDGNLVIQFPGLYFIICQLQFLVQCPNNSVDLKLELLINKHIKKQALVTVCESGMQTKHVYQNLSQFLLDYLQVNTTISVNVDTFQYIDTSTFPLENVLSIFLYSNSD


Assays:
[1] = biological target: T3, recombinant cynomolgus CD30L protein (cynomolgus); test: ELISA, cyCD30L, 1/50 dil
T3 construct: Recombinant protein of the ELISA; also called cyCD30L; cyno CD30L

[2] = biological target: T3, recombinant cynomolgus CD30L protein; test: ELISA, cyCD30L, 1/500 dil
[3] = biological target: T3, recombinant cynomolgus CD30L protein; test: ELISA, cyCD30L, 1/5000 dil
[4] = biological target: cynomolgus CD30L on HEK293 cells (cynomolgus); test: cell-based or functional assay
recombinant human CD30L = biological target: T1, recombinant human CD30L; test: ELISA on rhCD30L, OD 450 nm against Ab (nM)
[5] = biological target: T2, human CD30L expressed on B16 cells; test: flow cytometry on B16-huCD30L cells, MFI against Ab (nM)

| Binder | Elisa Binding (OD) [1] [OD] | Elisa Binding (OD) [2] [OD] | Elisa Binding (OD) [3] [OD] | Inhibition of IL-8 release in a dual cell assay (HEK293-cyCD30L cells + K299 cells) IC50 [4] [nM] | also measured |
| --- | --- | --- | --- | --- | --- |
| Clone 4 (antibody, V domains shown, hybridoma clone) VH: QVQLVESGGGVVQPGRSLRLSCAASGFPFSSYGMHWVRQAPGKGLEWVTFIWFDGNNKDYADSVKGRFSVSRDNSKNTLYLQMNSLRADDTAVYYCARNGVYYGSGAYVDYWGQGTLVTVSS VL: not shown | 2.58 | 2.38 | 0.583 | – | – |
| Clone 2, Mouse IgG (antibody, V domains shown) VH: EVQLVESGGGLVQPGRSLRLSCAASGFNFDDYAMHWVRQAPGKGLEWVSGISWRSGNIGYAGSVKGRFTISRDNAKNSLYLQMNSLRPEDSALYYCAKDKGIGFNWNYEGFDYWGQGTLVTVSS VL: DIQMTQSPSSLSASVGDRVTITCRASQGISNHLAWFQQKPGKAPKSLIYAASSLQSGVPSKFSGSGSGTDFTLTISSLQPEDFATYYCQQYVTYPLTFGGGTKVEIK | – | – | – | 0.46 | – |
| Clone 2, Human IgG1 (antibody, V domains shown) VH: EVQLVESGGGLVQPGRSLRLSCAASGFNFDDYAMHWVRQAPGKGLEWVSGISWRSGNIGYAGSVKGRFTISRDNAKNSLYLQMNSLRPEDSALYYCAKDKGIGFNWNYEGFDYWGQGTLVTVSS VL: DIQMTQSPSSLSASVGDRVTITCRASQGISNHLAWFQQKPGKAPKSLIYAASSLQSGVPSKFSGSGSGTDFTLTISSLQPEDFATYYCQQYVTYPLTFGGGTKVEIK | – | – | – | 0.24 | – |
| anti-CD30L antibody clone 80 (antibody, V domains shown, purified recombinant IgG, mouse strain #1) VH: EVQLVESGGGLVQPGGSLRLSCEVSGFTFSSYDMHWVRQVTGTGLEWVSSIGIGGDTYYPGSVKGRFTISRENAKNSLYLQMNSLRGGDTGVYYCARGEWDLLWYFMDVWGKGTTVTVSS VL: DIQMTQSPSSLSASIGDRVTITCRASQGISSWLAWYQQKPGKAPKLLIYAASSLQSGVPSRFSGSGSGTDFTLTISSLQPEDFATYYCQQANSFPLTFGGGTKVEIK | – | – | – | – | EC50 (read off the curve) (recombinant human CD30L): ~0.1 nM; EC50 (read off the curve) [5]: ~2 nM |
| Clone 2 (antibody, V domains shown, also called anti-CD30L antibody clone 2 (parental)) VH: EVQLVESGGGLVQPGRSLRLSCAASGFNFDDYAMHWVRQAPGKGLEWVSGISWRSGNIGYAGSVKGRFTISRDNAKNSLYLQMNSLRPEDSALYYCAKDKGIGFNWNYEGFDYWGQGTLVTVSS VL: DIQMTQSPSSLSASVGDRVTITCRASQGISNHLAWFQQKPGKAPKSLIYAASSLQSGVPSKFSGSGSGTDFTLTISSLQPEDFATYYCQQYVTYPLTFGGGTKVEIK | 3.76 | 3.18 | 1.23 | – | – |
| anti-CD30L Reference 1 antibody (antibody, human IgG1, lambda, V domains shown) VH: QVQLQESGPGLVKPSETLSLTCTVSGGSISSYIWSWIRQPAGKGLEWIGRIYASGNTNYNPSLKSRVTISVDTSKNQFSLKLSSMTAADTAVYYCARDYRVAGTYYYYYGLDVWGQGTTVTVSS VL: QSALTQPASVSGSPGQSITISCTGTSSDVGVYDYVSWYQQHPGKAPKLMIYEVSNRPSGVSNRFSGSKSGNTASLTISGLQTEDEADYYCSSYTSRSTWVFGGGTKLTVLG | – | – | – | 0.68 | – |
| Clone 1, Mouse IgG (antibody, V domains shown) VH: QVQLQESGPGLVKPSETLSLTCTVSGGSISGYYWSWIRQPPVKGLEWIGYIFYSGYTKYNPSLKSRVTISVDTSKNQFSLKLSSVTAADTAVYYCARDRWDFDYWGQGALVTVSS VL: AIQMTQSPSYLSASVGDRVTIACRASQGIRNNLGWYQQKPGKAPKLLIYAESSLQSGVPSRFSGSGSGTDFTLTISSLQPEDFATYYCLQDFNYPYTFGQGTKLEIK | – | – | – | 0.55 | – |
| Clone 1 (antibody, V domains shown, also called anti-CD30L antibody clone 1 (parental)) VH: QVQLQESGPGLVKPSETLSLTCTVSGGSISGYYWSWIRQPPVKGLEWIGYIFYSGYTKYNPSLKSRVTISVDTSKNQFSLKLSSVTAADTAVYYCARDRWDFDYWGQGALVTVSS VL: AIQMTQSPSYLSASVGDRVTIACRASQGIRNNLGWYQQKPGKAPKLLIYAESSLQSGVPSRFSGSGSGTDFTLTISSLQPEDFATYYCLQDFNYPYTFGQGTKLEIK | 2.83 | 2.87 | 1.16 | – | – |
| Clone 3 (antibody, V domains shown, hybridoma clone) VH: QVQLQESGPGLVKPSETLSLTCTVSGGSISGYYWSWIRQPPVKGLEWIGYIFYSGYTKYNPSLKSRVTISVDTSKNQFSLKLSSVTAADTAVYYCARDRWDFDYWGQGALVTVSS VL: not shown | 3.2 | 2.35 | 0.552 | – | – |
| Clone 1, Human IgG1 (antibody, V domains shown) VH: QVQLQESGPGLVKPSETLSLTCTVSGGSISGYYWSWIRQPPVKGLEWIGYIFYSGYTKYNPSLKSRVTISVDTSKNQFSLKLSSVTAADTAVYYCARDRWDFDYWGQGALVTVSS VL: AIQMTQSPSYLSASVGDRVTIACRASQGIRNNLGWYQQKPGKAPKLLIYAESSLQSGVPSRFSGSGSGTDFTLTISSLQPEDFATYYCLQDFNYPYTFGQGTKLEIK | – | – | – | 0.22 | – |
